Columns and labels:
HLA-DRB4*0101 (human) = experiment: competition binding; conditions: modification not given
HLA-DRB1*0101 (human) = experiment: competition binding; conditions: modification not given

Binder | IC50 (HLA-DRB4*0101 (human)) [µM] | IC50 (HLA-DRB1*0101 (human)) [µM]
VGYVDDTQFVRFDSD [p6] | 90 | –
GTLRGYYNQSEAGSH [p15] | – | 0.456

Reference: patent US20100215619A1
